Source: the Human Domainome abundance scans (Beltran et al. 2025)
± gives the uncertainty stated by the source.

B1: E3 ubiquitin-protein ligase Midline-1, residues 172 to 214; numbered along this chain, O15344 (parent)
chain: GLMCLEHEDEKVNMYCVTDDQLICALCKLVGRHRDHQVAALSE

Variants of: B1
Assay: abundance fitness (aPCA) (normalised: wild type 0, dead -1); higher = more abundant; growth selection in yeast, the domain comes from the species named
Settings: Homo sapiens

GLMCLEHEDEKVNMYCSTDDQLICALCKLVGRHRDHQVAALSE [V17S] and GLMCLEHEDEKVNMYCDTDDQLICALCKLVGRHRDHQVAALSE [V17D] are within error of each other in abundance fitness: 0.174 ± 0.051 for the first, 0.113 ± 0.067 for the second.

GLMCLEHEDEKVNMYCQTDDQLICALCKLVGRHRDHQVAALSE [V17Q] and GLMCLEHEDEKVNMYCATDDQLICALCKLVGRHRDHQVAALSE [V17A] are within error of each other in abundance fitness: 0.275 ± 0.065 for the first, 0.172 ± 0.049 for the second.

First: GLMCLEHEDEKVNMYCWTDDQLICALCKLVGRHRDHQVAALSE [V17W]
Second: GLMCLEHEDEKVNMYCHTDDQLICALCKLVGRHRDHQVAALSE [V17H]
The abundance fitness of the first is lower: -0.176 ± 0.07 for the first, 0.29 ± 0.095 for the second.

GLMCLEHEDEKVNMYCVTDDQLICALCKLVGRHRDHQVATLSE [A40T] and GLMCLEHEDEKVNMYCVTDDQLICALCKLVGRHRDHQVAQLSE [A40Q] are within error of each other in abundance fitness: 0.035 ± 0.087 for the first, 0.082 ± 0.095 for the second.

GLMCLEHEDEKVNMYCVTDDQLICALCKLVGRHRDHQVARLSE [A40R] and GLMCLEHEDEKVNMYCVTDDQLICALCKLVGRHRDHQVADLSE [A40D] are within error of each other in abundance fitness: -0.019 ± 0.053 for the first, 0.031 ± 0.094 for the second.

First: GLMCLEHEDEKVNMYCVTDDQLICALCKLVGRHRDHQVAKLSE [A40K]
Second: GLMCLEHEDEKVNMYCVTDDQLICALCKLVGRHRDHQVAMLSE [A40M]
The abundance fitness of the first is higher: 0.108 ± 0.075 for the first, -0.151 ± 0.14 for the second.

Compared with GLMCLEHEDEKVNMYCVTDDQLICALCKLVGRHRDHQVAVLSE [A40V], GLMCLEHEDEKVNMYCVTDDQLICALCRLVGRHRDHQVAALSE [K28R] is higher in abundance fitness: -0.236 ± 0.06 for the first, 0.119 ± 0.05 for the second.

GLMCLEHEREKVNMYCVTDDQLICALCKLVGRHRDHQVAALSE [D9R] and GLMCLEHEHEKVNMYCVTDDQLICALCKLVGRHRDHQVAALSE [D9H] are within error of each other in abundance fitness: 0.027 ± 0.049 for the first, -0.107 ± 0.18 for the second.

GLMCLEHEPEKVNMYCVTDDQLICALCKLVGRHRDHQVAALSE [D9P] and GLMCLEHEDEKVNMYCVTDDGLICALCKLVGRHRDHQVAALSE [Q21G] are within error of each other in abundance fitness: -0.088 ± 0.18 for the first, -0.133 ± 0.046 for the second.

Compared with GLMCLEHEDEKVNMYCVTDDILICALCKLVGRHRDHQVAALSE [Q21I], GLMCLEHEDEKVNMYCVTDDQLICALCKAVGRHRDHQVAALSE [L29A] is higher in abundance fitness: -0.133 ± 0.2 for the first, 0.135 ± 0.053 for the second.

Compared with GLMCLEHEDEKGNMYCVTDDQLICALCKLVGRHRDHQVAALSE [V12G], GLMCLEHEDEKTNMYCVTDDQLICALCKLVGRHRDHQVAALSE [V12T] is lower in abundance fitness: 0.026 ± 0.048 for the first, -0.149 ± 0.081 for the second.

Going from GLMCLEHEDEKVNMYCVTDDQLICAQCKLVGRHRDHQVAALSE [L26Q] to GLMCLEHEDEKVNMYCVTDDQLICASCKLVGRHRDHQVAALSE [L26S], the abundance fitness falls from 0.387 ± 0.077 to 0.165 ± 0.062.

GLMCLEHEDEKVNMYCVTDDQLICANCKLVGRHRDHQVAALSE [L26N] and GLMCLEHEDEKVNMYCVTDDQLICATCKLVGRHRDHQVAALSE [L26T] are within error of each other in abundance fitness: 0.193 ± 0.2 for the first, 0.189 ± 0.078 for the second.

Going from GLMCLEHEDEKVNPYCVTDDQLICALCKLVGRHRDHQVAALSE [M14P] to GLMCLEHEDEKVNDYCVTDDQLICALCKLVGRHRDHQVAALSE [M14D], the abundance fitness rises from -0.405 ± 0.075 to 0.09 ± 0.12.

First: GLMCLEHEDEKVNGYCVTDDQLICALCKLVGRHRDHQVAALSE [M14G]
Second: GLMCLEHEDEKVNMYCVTDDQLICALCKLVGRHRHHQVAALSE [D35H]
The abundance fitness of the first is higher: 0.059 ± 0.045 for the first, -0.177 ± 0.14 for the second.

Going from GLMCLEHEDEKVNMYCVTDDQLICALCKLVGRHRQHQVAALSE [D35Q] to GLMCLEHEDWKVNMYCVTDDQLICALCKLVGRHRDHQVAALSE [E10W], the abundance fitness falls from 0.034 ± 0.065 to -0.247 ± 0.062.

GLMCLEHEDKKVNMYCVTDDQLICALCKLVGRHRDHQVAALSE [E10K] and GLMCLEHEDSKVNMYCVTDDQLICALCKLVGRHRDHQVAALSE [E10S] are within error of each other in abundance fitness: 0.063 ± 0.087 for the first, -0.079 ± 0.098 for the second.

Compared with GLSCLEHEDEKVNMYCVTDDQLICALCKLVGRHRDHQVAALSE [M3S], GLTCLEHEDEKVNMYCVTDDQLICALCKLVGRHRDHQVAALSE [M3T] is lower in abundance fitness: 0.006 ± 0.06 for the first, -0.166 ± 0.093 for the second.

First: GLLCLEHEDEKVNMYCVTDDQLICALCKLVGRHRDHQVAALSE [M3L]
Second: GLHCLEHEDEKVNMYCVTDDQLICALCKLVGRHRDHQVAALSE [M3H]
The abundance fitness of the first is lower: -0.05 ± 0.072 for the first, 0.14 ± 0.1 for the second.

First: GLMCLEHEDEKVNMYCVTDDQLICALWKLVGRHRDHQVAALSE [C27W]
Second: GLMCLEHEDEKVNMYCVTDDQLICALGKLVGRHRDHQVAALSE [C27G]
The abundance fitness of the first is lower: -1.01 ± 0.11 for the first, -0.696 ± 0.074 for the second.

GLMCLEHEDEKVNMYCVTDDQLICALKKLVGRHRDHQVAALSE [C27K] and GLMCLEHEDEKVNMYCVTDDQLICALTKLVGRHRDHQVAALSE [C27T] are within error of each other in abundance fitness: -0.429 ± 0.43 for the first, -0.571 ± 0.14 for the second.

Compared with GLMCLEKEDEKVNMYCVTDDQLICALCKLVGRHRDHQVAALSE [H7K], GLMCLEHEDEKVFMYCVTDDQLICALCKLVGRHRDHQVAALSE [N13F] is higher in abundance fitness: -0.604 ± 0.12 for the first, 0.354 ± 0.19 for the second.

Compared with GLMCLEHEDEKVRMYCVTDDQLICALCKLVGRHRDHQVAALSE [N13R], GLMCLEHEDEKVKMYCVTDDQLICALCKLVGRHRDHQVAALSE [N13K] is higher in abundance fitness: -0.137 ± 0.049 for the first, 0.04 ± 0.071 for the second.

First: GLMCLEHEDEKVNMYCVTDDQLICALCKLVGRHRDHQHAALSE [V38H]
Second: GLMCLEHEDEKVNMYCVTDDQLICALCKLVGRHRDHQMAALSE [V38M]
The abundance fitness of the first is higher: 0.082 ± 0.062 for the first, -0.18 ± 0.1 for the second.

First: GLMCLEHEDEKVNMYCVTDDQLICALCKLVGRHRDHQTAALSE [V38T]
Second: GLMALEHEDEKVNMYCVTDDQLICALCKLVGRHRDHQVAALSE [C4A]
The abundance fitness of the first is higher: -0.233 ± 0.17 for the first, -0.699 ± 0.11 for the second.

GLMCLEHEDEKVNMYCVTDDQLICALCKLVSRHRDHQVAALSE [G31S] and GLMCLEHEDEKVNMYCVTDDQLICPLCKLVGRHRDHQVAALSE [A25P] are within error of each other in abundance fitness: -0.263 ± 0.075 for the first, -0.124 ± 0.11 for the second.

GLMCLEHEDEKVNMYCVTDDQLICKLCKLVGRHRDHQVAALSE [A25K] and GLMCLEHEDEKVNMYCVTDDQLICALCKLVGRHRDHQVAALHE [S42H] are within error of each other in abundance fitness: -0.02 ± 0.062 for the first, 0.089 ± 0.069 for the second.

Compared with GLMCLEHEDEKVNMYCVTDDQLICALCKLVGRHRDHQVAALDE [S42D], GLMCLEHEDEKVNMYCVTDDQLICALCKLVGRHRDHNVAALSE [Q37N] is lower in abundance fitness: 0.209 ± 0.07 for the first, -0.184 ± 0.19 for the second.

Going from GLMCLEHEDEKVNMYCVTDDQLICALCKLVGRHRDHLVAALSE [Q37L] to GLMCLEHEDEKVNMYCVTDDQLICALCKLVGRHRDHRVAALSE [Q37R], the abundance fitness rises from -0.338 ± 0.08 to -0.077 ± 0.056.

GLMCLEHEDEKVNMYCVTDDQLICALCKLVGRHRDHDVAALSE [Q37D] gave an abundance fitness of 0.105 ± 0.12.
